Source: article PMC5766158 (Nucleic Acids Research, 2017)

T1: POLA2-FLAG (human, UniProt Q14181 1-598)
T1 sequence: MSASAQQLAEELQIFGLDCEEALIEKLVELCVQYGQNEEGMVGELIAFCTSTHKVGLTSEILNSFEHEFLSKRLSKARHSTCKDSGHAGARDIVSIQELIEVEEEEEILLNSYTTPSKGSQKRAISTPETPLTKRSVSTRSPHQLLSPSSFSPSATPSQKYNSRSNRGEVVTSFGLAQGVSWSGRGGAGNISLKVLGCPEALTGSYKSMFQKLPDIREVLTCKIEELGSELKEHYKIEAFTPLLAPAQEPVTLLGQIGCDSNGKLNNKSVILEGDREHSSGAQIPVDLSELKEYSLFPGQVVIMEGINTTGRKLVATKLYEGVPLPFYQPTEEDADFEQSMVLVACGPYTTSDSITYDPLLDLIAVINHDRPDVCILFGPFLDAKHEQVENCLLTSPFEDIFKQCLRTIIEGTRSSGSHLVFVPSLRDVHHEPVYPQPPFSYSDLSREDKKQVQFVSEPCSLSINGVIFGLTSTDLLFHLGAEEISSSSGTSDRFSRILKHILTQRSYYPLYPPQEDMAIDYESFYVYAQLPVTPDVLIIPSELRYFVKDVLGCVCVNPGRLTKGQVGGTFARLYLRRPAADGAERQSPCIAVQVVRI

T2: POLA2(1-414)-FG3 (human, UniProt Q14181 1-414)
T2 sequence: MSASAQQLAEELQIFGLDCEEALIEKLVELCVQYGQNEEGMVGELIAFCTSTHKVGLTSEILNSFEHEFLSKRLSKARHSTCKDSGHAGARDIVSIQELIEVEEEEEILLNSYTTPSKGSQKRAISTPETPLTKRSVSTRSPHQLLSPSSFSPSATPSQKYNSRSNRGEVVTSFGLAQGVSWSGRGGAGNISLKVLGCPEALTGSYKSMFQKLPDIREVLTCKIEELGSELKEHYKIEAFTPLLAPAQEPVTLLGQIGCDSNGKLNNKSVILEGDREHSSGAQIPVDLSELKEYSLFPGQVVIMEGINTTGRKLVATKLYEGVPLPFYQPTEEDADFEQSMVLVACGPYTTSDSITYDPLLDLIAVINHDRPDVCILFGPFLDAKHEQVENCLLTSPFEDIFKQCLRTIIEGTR

B1: STN1N-Strep (domain or fragment)
chain: MQPGSSRCEEETPSLLWGLDPVFLAFAKLYIRDILDMKESRQVPGVFLYNGHPIKQVDVLGTVIGVRERDAFYSYGVDDSTGVINCICWKKLNTESVSAAPSAARELSLTSQLKKLQETIEQKTKIEIGDTIRVRGSIRTYREEREIHATTYYKVDDPVWNIQIARMLELPTIYRKVYDQPFHSSALEKE
B2: full length STN1-Strep (STN1F-Strep) (natural protein)
chain: MQPGSSRCEEETPSLLWGLDPVFLAFAKLYIRDILDMKESRQVPGVFLYNGHPIKQVDVLGTVIGVRERDAFYSYGVDDSTGVINCICWKKLNTESVSAAPSAARELSLTSQLKKLQETIEQKTKIEIGDTIRVRGSIRTYREEREIHATTYYKVDDPVWNIQIARMLELPTIYRKVYDQPFHSSALEKEEALSNPGALDLPSLTSLLSEKAKEFLMENRVQSFYQQELEMVESLLSLANQPVIHSASSDQVNFKKDTTSKAIHSIFKNAIQLLQEKGLVFQKDDGFDNLYYVTREDKDLHRKIHRIIQQDCQKPNHMEKGCHFLHILACARLSIRPGLSEAVLQQVLELLEDQSDIVSTMEHYYTAF
B3: POLA2(1-334)-FG3 (domain or fragment)
chain: MSASAQQLAEELQIFGLDCEEALIEKLVELCVQYGQNEEGMVGELIAFCTSTHKVGLTSEILNSFEHEFLSKRLSKARHSTCKDSGHAGARDIVSIQELIEVEEEEEILLNSYTTPSKGSQKRAISTPETPLTKRSVSTRSPHQLLSPSSFSPSATPSQKYNSRSNRGEVVTSFGLAQGVSWSGRGGAGNISLKVLGCPEALTGSYKSMFQKLPDIREVLTCKIEELGSELKEHYKIEAFTPLLAPAQEPVTLLGQIGCDSNGKLNNKSVILEGDREHSSGAQIPVDLSELKEYSLFPGQVVIMEGINTTGRKLVATKLYEGVPLPFYQPTEED

Experiments:
STN1N-Strep = biological target: B1; experiment: pull-down
POLA2-FLAG = biological target: T1, POLA2-FLAG; experiment: cell-based or functional assay
POLA2(1-414)-FG3 = biological target: T2, POLA2(1-414)-FG3; experiment: pull-down
POLA2(1-334)-FG3 = biological target: B3; experiment: pull-down
[1] = biological target: B2; experiment: pull-down

binding result (POLA2(1-414)-FG3) | Binder | further results
– | POLA2OB-FG3 (domain or fragment) GSYKSMFQKLPDIREVLTCKIEELGSELKEHYKIEAFTPLLAPAQEPVTLLGQIGCDSNGKLNNKSVILEGDREHSSGAQIPVDLSELKEYSLFPGQVVIMEGINTTGRKLVATKLYEGVPLPFYQPTEED | binding result (STN1N-Strep): binds
– | STN1N-Strep R135T (domain or fragment) MQPGSSRCEEETPSLLWGLDPVFLAFAKLYIRDILDMKESRQVPGVFLYNGHPIKQVDVLGTVIGVRERDAFYSYGVDDSTGVINCICWKKLNTESVSAAPSAARELSLTSQLKKLQETIEQKTKIEIGDTIRVTGSIRTYREEREIHATTYYKVDDPVWNIQIARMLELPTIYRKVYDQPFHSSALEKE | PP stimulatory activity against wild-type STN1N (1.5 uM, poly-dT template) (POLA2-FLAG): 2 fold
binds | STN1N-Strep OBM-2 (W89A/R139A/Y141A) (domain or fragment) MQPGSSRCEEETPSLLWGLDPVFLAFAKLYIRDILDMKESRQVPGVFLYNGHPIKQVDVLGTVIGVRERDAFYSYGVDDSTGVINCICAKKLNTESVSAAPSAARELSLTSQLKKLQETIEQKTKIEIGDTIRVRGSIATAREEREIHATTYYKVDDPVWNIQIARMLELPTIYRKVYDQPFHSSALEKE | –
binds | STN1N-Strep R135W (domain or fragment) MQPGSSRCEEETPSLLWGLDPVFLAFAKLYIRDILDMKESRQVPGVFLYNGHPIKQVDVLGTVIGVRERDAFYSYGVDDSTGVINCICWKKLNTESVSAAPSAARELSLTSQLKKLQETIEQKTKIEIGDTIRVWGSIRTYREEREIHATTYYKVDDPVWNIQIARMLELPTIYRKVYDQPFHSSALEKE | –
binds | STN1N-Strep D157Y (domain or fragment) MQPGSSRCEEETPSLLWGLDPVFLAFAKLYIRDILDMKESRQVPGVFLYNGHPIKQVDVLGTVIGVRERDAFYSYGVDDSTGVINCICWKKLNTESVSAAPSAARELSLTSQLKKLQETIEQKTKIEIGDTIRVRGSIRTYREEREIHATTYYKVDYPVWNIQIARMLELPTIYRKVYDQPFHSSALEKE | –
binds | B1 | binding result (POLA2(1-334)-FG3): binds
binds | B2 | –
– | B3 | binding result [1]: binds
